Patent EP4663654A1 (Hangzhou Sciwind Biosciences Co., Ltd., dated 2025)
Starred links: 1 amine or outer side, 2 acyl side, 3 side chain; linkers in the order of their positions; H or OH if unused. Non-standard residues stand in square brackets, D forms with d. *: point of attachment. C20 diacid = O=C(O)CCCCCCCCCCCCCCCCCCC(=O)*; γGlu = O=C(O)[C@H](CCC(=O)[*:2])N[*:1]; Hyp = O=C(O)[C@@H]1C[C@@H](O)CN1

T1: human amylin receptor (AMY3) on CHO-K1/Ga15/AMY3 amylin receptor/CRE-luc cells (human, UniProt P30988 25-474; O60896 24-148)
T1 sequence (looked up) 1: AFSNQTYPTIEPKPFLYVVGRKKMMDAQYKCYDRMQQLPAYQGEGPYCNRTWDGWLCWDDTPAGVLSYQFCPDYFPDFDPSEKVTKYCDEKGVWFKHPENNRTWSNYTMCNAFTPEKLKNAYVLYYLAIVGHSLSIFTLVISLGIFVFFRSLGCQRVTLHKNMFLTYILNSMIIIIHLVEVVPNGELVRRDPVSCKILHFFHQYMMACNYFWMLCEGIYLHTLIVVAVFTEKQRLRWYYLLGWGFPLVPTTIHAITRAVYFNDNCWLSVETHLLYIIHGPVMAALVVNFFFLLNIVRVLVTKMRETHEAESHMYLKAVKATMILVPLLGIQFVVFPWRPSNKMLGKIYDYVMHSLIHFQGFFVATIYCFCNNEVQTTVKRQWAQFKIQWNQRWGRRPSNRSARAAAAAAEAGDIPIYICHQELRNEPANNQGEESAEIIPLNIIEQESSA
T1 sequence (looked up) 2: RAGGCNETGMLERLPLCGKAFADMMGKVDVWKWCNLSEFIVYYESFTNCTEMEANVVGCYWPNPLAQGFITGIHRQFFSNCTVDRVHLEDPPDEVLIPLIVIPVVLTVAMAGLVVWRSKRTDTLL


Molecular target: T1, human amylin receptor (AMY3) on …
Assay: cell-based or functional assay

Row | Binder | EC50/nM, CRE-luciferase reporter in amylin receptor/CRE-luc CHO cells | Relative activity (the EC50 ratio of Cagrilintide to the compound)
1 | {C20 diacid-γGlu}-ASQLSTAATQRLADFLRHSSTNLKPILPPTNVGSNT[Hyp]-NH2 (SMILES CC[C@H](C)[C@H](NC(=O)[C@@H]1CCCN1C(=O)[C@H](CCCCN)NC(=O)[C@H](CC(C)C)NC(=O)[C@H](CC(N)=O)NC(=O)[C@@H](NC(=O)[C@H](CO)NC(=O)[C@H](CO)NC(=O)[C@H](Cc1c[nH]cn1)NC(=O)[C@H](CCCNC(=N)N)NC(=O)[C@H](CC(C)C)NC(=O)[C@H](Cc1ccccc1)NC(=O)[C@H](CC(=O)O)NC(=O)[C@H](C)NC(=O)[C@H](CC(C)C)NC(=O)[C@H](CCCNC(=N)N)NC(=O)[C@H](CCC(N)=O)NC(=O)[C@@H](NC(=O)[C@H](C)NC(=O)[C@H](C)NC(=O)[C@@H](NC(=O)[C@H](CO)NC(=O)[C@H](CC(C)C)NC(=O)[C@H](CCC(N)=O)NC(=O)[C@H](CO)NC(=O)[C@H](C)NC(=O)CC[C@H](NC(=O)CCCCCCCCCCCCCCCCCCC(=O)O)C(=O)O)[C@@H](C)O)[C@@H](C)O)[C@@H](C)O)C(=O)N[C@@H](CC(C)C)C(=O)N1CCC[C@H]1C(=O)N1CCC[C@H]1C(=O)N[C@H](C(=O)N[C@@H](CC(N)=O)C(=O)N[C@H](C(=O)NCC(=O)N[C@@H](CO)C(=O)N[C@@H](CC(N)=O)C(=O)N[C@H](C(=O)N1C[C@H](O)C[C@H]1C(N)=O)[C@@H](C)O)C(C)C)[C@@H](C)O) [polypeptide derivative M49] | 0.08 nM | 163%
2 | {C20 diacid-γGlu}-ASQLSTAATQRLADFLRHSSGNLKPILPPTNVGSNT[Hyp]-NH2 (SMILES CC[C@H](C)[C@H](NC(=O)[C@@H]1CCCN1C(=O)[C@H](CCCCN)NC(=O)[C@H](CC(C)C)NC(=O)[C@H](CC(N)=O)NC(=O)CNC(=O)[C@H](CO)NC(=O)[C@H](CO)NC(=O)[C@H](Cc1c[nH]cn1)NC(=O)[C@H](CCCNC(=N)N)NC(=O)[C@H](CC(C)C)NC(=O)[C@H](Cc1ccccc1)NC(=O)[C@H](CC(=O)O)NC(=O)[C@H](C)NC(=O)[C@H](CC(C)C)NC(=O)[C@H](CCCNC(=N)N)NC(=O)[C@H](CCC(N)=O)NC(=O)[C@@H](NC(=O)[C@H](C)NC(=O)[C@H](C)NC(=O)[C@@H](NC(=O)[C@H](CO)NC(=O)[C@H](CC(C)C)NC(=O)[C@H](CCC(N)=O)NC(=O)[C@H](CO)NC(=O)[C@H](C)NC(=O)CC[C@H](NC(=O)CCCCCCCCCCCCCCCCCCC(=O)O)C(=O)O)[C@@H](C)O)[C@@H](C)O)C(=O)N[C@@H](CC(C)C)C(=O)N1CCC[C@H]1C(=O)N1CCC[C@H]1C(=O)N[C@H](C(=O)N[C@@H](CC(N)=O)C(=O)N[C@H](C(=O)NCC(=O)N[C@@H](CO)C(=O)N[C@@H](CC(N)=O)C(=O)N[C@H](C(=O)N1C[C@H](O)C[C@H]1C(N)=O)[C@@H](C)O)C(C)C)[C@@H](C)O) [polypeptide derivative M51] | 0.08 nM | 163%
3 | {C20 diacid-γGlu}-ASQLSTAATQRLADFLRHSSENLKPILPPTNVGSNT[Hyp]-NH2 (SMILES CC[C@H](C)[C@H](NC(=O)[C@@H]1CCCN1C(=O)[C@H](CCCCN)NC(=O)[C@H](CC(C)C)NC(=O)[C@H](CC(N)=O)NC(=O)[C@H](CCC(=O)O)NC(=O)[C@H](CO)NC(=O)[C@H](CO)NC(=O)[C@H](Cc1c[nH]cn1)NC(=O)[C@H](CCCNC(=N)N)NC(=O)[C@H](CC(C)C)NC(=O)[C@H](Cc1ccccc1)NC(=O)[C@H](CC(=O)O)NC(=O)[C@H](C)NC(=O)[C@H](CC(C)C)NC(=O)[C@H](CCCNC(=N)N)NC(=O)[C@H](CCC(N)=O)NC(=O)[C@@H](NC(=O)[C@H](C)NC(=O)[C@H](C)NC(=O)[C@@H](NC(=O)[C@H](CO)NC(=O)[C@H](CC(C)C)NC(=O)[C@H](CCC(N)=O)NC(=O)[C@H](CO)NC(=O)[C@H](C)NC(=O)CC[C@H](NC(=O)CCCCCCCCCCCCCCCCCCC(=O)O)C(=O)O)[C@@H](C)O)[C@@H](C)O)C(=O)N[C@@H](CC(C)C)C(=O)N1CCC[C@H]1C(=O)N1CCC[C@H]1C(=O)N[C@H](C(=O)N[C@@H](CC(N)=O)C(=O)N[C@H](C(=O)NCC(=O)N[C@@H](CO)C(=O)N[C@@H](CC(N)=O)C(=O)N[C@H](C(=O)N1C[C@H](O)C[C@H]1C(N)=O)[C@@H](C)O)C(C)C)[C@@H](C)O) [polypeptide derivative M47] | 0.08 nM | 113%
4 | {C20 diacid-γGlu}-ASQLSTAATQRLADFLRHSSSNLKPILPPTNVGSNT[Hyp]-NH2 (SMILES CC[C@H](C)[C@H](NC(=O)[C@@H]1CCCN1C(=O)[C@H](CCCCN)NC(=O)[C@H](CC(C)C)NC(=O)[C@H](CC(N)=O)NC(=O)[C@H](CO)NC(=O)[C@H](CO)NC(=O)[C@H](CO)NC(=O)[C@H](Cc1c[nH]cn1)NC(=O)[C@H](CCCNC(=N)N)NC(=O)[C@H](CC(C)C)NC(=O)[C@H](Cc1ccccc1)NC(=O)[C@H](CC(=O)O)NC(=O)[C@H](C)NC(=O)[C@H](CC(C)C)NC(=O)[C@H](CCCNC(=N)N)NC(=O)[C@H](CCC(N)=O)NC(=O)[C@@H](NC(=O)[C@H](C)NC(=O)[C@H](C)NC(=O)[C@@H](NC(=O)[C@H](CO)NC(=O)[C@H](CC(C)C)NC(=O)[C@H](CCC(N)=O)NC(=O)[C@H](CO)NC(=O)[C@H](C)NC(=O)CC[C@H](NC(=O)CCCCCCCCCCCCCCCCCCC(=O)O)C(=O)O)[C@@H](C)O)[C@@H](C)O)C(=O)N[C@@H](CC(C)C)C(=O)N1CCC[C@H]1C(=O)N1CCC[C@H]1C(=O)N[C@H](C(=O)N[C@@H](CC(N)=O)C(=O)N[C@H](C(=O)NCC(=O)N[C@@H](CO)C(=O)N[C@@H](CC(N)=O)C(=O)N[C@H](C(=O)N1C[C@H](O)C[C@H]1C(N)=O)[C@@H](C)O)C(C)C)[C@@H](C)O) [polypeptide derivative M48] | 0.05 nM | 180%
5 | {C20 diacid-γGlu}-ASQLSTAATQRLADFLRHSSQNLKPILPPTNVGSNT[Hyp]-NH2 (SMILES CC[C@H](C)[C@H](NC(=O)[C@@H]1CCCN1C(=O)[C@H](CCCCN)NC(=O)[C@H](CC(C)C)NC(=O)[C@H](CC(N)=O)NC(=O)[C@H](CCC(N)=O)NC(=O)[C@H](CO)NC(=O)[C@H](CO)NC(=O)[C@H](Cc1c[nH]cn1)NC(=O)[C@H](CCCNC(=N)N)NC(=O)[C@H](CC(C)C)NC(=O)[C@H](Cc1ccccc1)NC(=O)[C@H](CC(=O)O)NC(=O)[C@H](C)NC(=O)[C@H](CC(C)C)NC(=O)[C@H](CCCNC(=N)N)NC(=O)[C@H](CCC(N)=O)NC(=O)[C@@H](NC(=O)[C@H](C)NC(=O)[C@H](C)NC(=O)[C@@H](NC(=O)[C@H](CO)NC(=O)[C@H](CC(C)C)NC(=O)[C@H](CCC(N)=O)NC(=O)[C@H](CO)NC(=O)[C@H](C)NC(=O)CC[C@H](NC(=O)CCCCCCCCCCCCCCCCCCC(=O)O)C(=O)O)[C@@H](C)O)[C@@H](C)O)C(=O)N[C@@H](CC(C)C)C(=O)N1CCC[C@H]1C(=O)N1CCC[C@H]1C(=O)N[C@H](C(=O)N[C@@H](CC(N)=O)C(=O)N[C@H](C(=O)NCC(=O)N[C@@H](CO)C(=O)N[C@@H](CC(N)=O)C(=O)N[C@H](C(=O)N1C[C@H](O)C[C@H]1C(N)=O)[C@@H](C)O)C(C)C)[C@@H](C)O) [polypeptide derivative M46] | 0.06 nM | 150%
6 | {C20 diacid-γGlu}-ASQLSTAATQRLADFLRHSSANLKPILPPTNVGSNT[Hyp]-NH2 (SMILES CC[C@H](C)[C@H](NC(=O)[C@@H]1CCCN1C(=O)[C@H](CCCCN)NC(=O)[C@H](CC(C)C)NC(=O)[C@H](CC(N)=O)NC(=O)[C@H](C)NC(=O)[C@H](CO)NC(=O)[C@H](CO)NC(=O)[C@H](Cc1c[nH]cn1)NC(=O)[C@H](CCCNC(=N)N)NC(=O)[C@H](CC(C)C)NC(=O)[C@H](Cc1ccccc1)NC(=O)[C@H](CC(=O)O)NC(=O)[C@H](C)NC(=O)[C@H](CC(C)C)NC(=O)[C@H](CCCNC(=N)N)NC(=O)[C@H](CCC(N)=O)NC(=O)[C@@H](NC(=O)[C@H](C)NC(=O)[C@H](C)NC(=O)[C@@H](NC(=O)[C@H](CO)NC(=O)[C@H](CC(C)C)NC(=O)[C@H](CCC(N)=O)NC(=O)[C@H](CO)NC(=O)[C@H](C)NC(=O)CC[C@H](NC(=O)CCCCCCCCCCCCCCCCCCC(=O)O)C(=O)O)[C@@H](C)O)[C@@H](C)O)C(=O)N[C@@H](CC(C)C)C(=O)N1CCC[C@H]1C(=O)N1CCC[C@H]1C(=O)N[C@H](C(=O)N[C@@H](CC(N)=O)C(=O)N[C@H](C(=O)NCC(=O)N[C@@H](CO)C(=O)N[C@@H](CC(N)=O)C(=O)N[C@H](C(=O)N1C[C@H](O)C[C@H]1C(N)=O)[C@@H](C)O)C(C)C)[C@@H](C)O) [polypeptide derivative M50] | 0.07 nM | 186%
